Patent US20210324061A1 (ARGENX BVBA, published 2021)

Each binder was assayed against T1, human GARP-TGF-β1 complex (recombinant complex of human GARP and latent human TGF-β1) (human, UniProt Q14392 20-627; P01137 30-278; P01137 279-390) (assay: SPR, IgG1 on human GARP-TGF-β1 complex).
T1 construct: also called huGARP-TGF-β1; hGARP-TGF-β1
Source text: The five germlined clones reformatted to human IgG1 were produced by transient transfection in HEK 293E cells.

T1 sequence (Q14392 20-627 limits assumed, chain 1 of 3): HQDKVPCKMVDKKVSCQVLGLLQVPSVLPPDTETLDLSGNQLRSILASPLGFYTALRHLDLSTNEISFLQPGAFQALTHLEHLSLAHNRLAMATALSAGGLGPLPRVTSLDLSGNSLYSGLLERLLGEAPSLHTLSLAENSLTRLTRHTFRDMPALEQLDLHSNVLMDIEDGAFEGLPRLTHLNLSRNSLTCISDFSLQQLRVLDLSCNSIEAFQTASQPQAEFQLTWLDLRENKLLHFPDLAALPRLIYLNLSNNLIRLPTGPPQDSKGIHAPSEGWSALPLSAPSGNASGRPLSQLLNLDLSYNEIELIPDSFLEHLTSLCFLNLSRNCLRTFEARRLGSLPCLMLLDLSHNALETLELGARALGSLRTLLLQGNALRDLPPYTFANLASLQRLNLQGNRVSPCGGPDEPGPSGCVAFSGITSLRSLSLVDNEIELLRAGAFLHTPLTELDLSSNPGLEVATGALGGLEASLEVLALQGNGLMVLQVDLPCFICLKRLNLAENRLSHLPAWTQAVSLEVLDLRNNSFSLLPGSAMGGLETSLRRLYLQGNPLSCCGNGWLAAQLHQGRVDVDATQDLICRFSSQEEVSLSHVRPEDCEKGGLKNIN
T1 sequence (P01137 30-278 limits assumed, chain 2 of 3): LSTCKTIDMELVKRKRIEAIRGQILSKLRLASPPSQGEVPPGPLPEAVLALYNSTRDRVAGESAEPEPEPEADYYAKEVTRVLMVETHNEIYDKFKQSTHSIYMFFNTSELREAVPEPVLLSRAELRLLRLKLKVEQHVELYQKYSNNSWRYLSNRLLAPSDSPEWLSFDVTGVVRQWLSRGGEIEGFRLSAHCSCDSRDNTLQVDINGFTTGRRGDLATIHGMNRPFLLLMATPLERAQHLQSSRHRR
T1 sequence (P01137 279-390 limits assumed, chain 3 of 3): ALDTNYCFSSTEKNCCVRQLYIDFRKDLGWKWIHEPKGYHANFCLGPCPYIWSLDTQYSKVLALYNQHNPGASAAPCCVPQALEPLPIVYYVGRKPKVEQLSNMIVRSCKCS

Row | Binder | Kd [nM] | fold difference (KD vs 17H5) [fold]
1 | 39A5 human IgG1 (antibody, V domains shown, Full human IgG1, made in HEK 293E cells) VH: QVQLVQPGAELRNPGASVKVSCKASGYRFTSYYIDWVRQAPGQGLEWMGRIDPEDGGTKYAQKFQGRVTFTRDTSTSTVYMELSSLRSEDTAVYYCARNEWETVVVGDLMYEYEYWGQGTLVT VL: DIQMTQSPSSLSASLGDRVTITCQASQSISSYLAWYQQKPGQAPKLLIYGASRLKTGVPSRFSGSGSGTDFTLTISSLQPEDAATYYCQQYASVPVTFGQGTKVEIK | 0.298 | 3
2 | 39B6 human IgG1 (antibody, V domains shown, Full human IgG1, made in HEK 293E cells) VH: QVQLVQPGAEVRKPGASVKVSCKASGYRFTSYYIDWVRQAPGQGLEWMGRIDPEDGGTKYAQKFQGRVTMTADTSTSTVYVELSSLRSEDTAVYYCARNEWETVVVGDLMYEYEYWGQGTLVTVSS VL: DIQMTQSPSSLSASVGDRVTITCQASQSISSYLAWYQQKPGQAPKILIYGASRLKTGVPSRFSGSGSGTSFTLTISSLEPEDAATYYCQQYASVPVTFGQGTKVEIK | 0.167 | 1.7
3 | 39B10 human IgG1 (antibody, V domains shown, Full human IgG1, made in HEK 293E cells) VH: EVQLVQSGAELKKPGASVKVSCKASGYRFTSYYIDWVRQAPGQGLEWMGRIDPEEGGTKYAQKFQGRVTMTADTSTSTAYMELSSLRSEDTAVYYCARNEWETVVVGDLMYEYEYWGQGTLVTVSS VL: DIQMTQSPSSLSASLGDRVTITCQASQSISSYLAWYQQKPGQAPNILIYGASRLKTGVPSRFSGSGSGTDFTLTISGLEAEDFATYYCQQYASVPVTFGQGTKVEIK | 0.262 | 2.6
4 | 38F2 human IgG1 (antibody, V domains shown, Full human IgG1, made in HEK 293E cells) VH: QVQLVQPGAELKKPGASVKVSCKASGYRFTSYYIDWVRQAPGQGLEWMGRIDPEDAGTKYAQKFQGRVTFTADTSTSTVYVELSSLRSEDTAVYYCARNEWETVVVGDLTYEYEYWGQGTLVTVSS VL: DIQMTQSPSSLSASVGDRVTITCQASQSISSYLAWYQQKPGKAPNLLIYGASRLKTEVPSRFSGSGSGTDFTLISGLEPEDAGTYYCQQYASVPVTFGQGTKVEIK | 0.48 | 4.8
5 | 39A12 human IgG1 (antibody, V domains shown, Full human IgG1, made in HEK 293E cells; also called 39A12_T) VH: EVQLVQPGAEVKKPGASVKVSCKASGYRFTSYYIDWVRQAPGQGLEWMGRIDPEEGGTKYAQKFQGRVTFTADTSTSTVYVELSSLRSEDTAVYYCARNEWETVVVGDLTYEYEYWGQGTLVTVSS VL: DIQMTQSPSSLSASVGDRVTITCQASQSISSYLAWYQQKPGQAPKILIYGASRLKTGVPSRFSGSGSGTDFTLTISSLQAEDFATYYCQQYASVPVTFGQGTKVEIK | 0.505 | 5.1

Each binder was assayed against T1, human GARP-TGF-β1 complex (recombinant …) (assay: SPR Biacore T200, CM5 chip coated with the antibody at 200 RU, complex in solution).
Procedure: (§1) The affinity of all antibodies (including 39B6-A) for GARP-TGF-β1 was tested by BiacoreT200 using a CM5 chip coated with GARP-TGF-β1 complex at 150RU (Table 17) or coated with the antibodies at 200RU (Table 17)

Row | Binder | Fold-difference (KD vs 39B6-A) [fold] | Kd [nM]
6 | 39B6-A IgG4 S228P (antibody, V domains shown, 39B6 with G55A in HCDR2, in the human IgG4 S228P backbone; also called 39B6-ANE) VH: QVQLVQPGAEVRKPGASVKVSCKASGYRFTSYYIDWVRQAPGQGLEWMGRIDPEDAGTKYAQKFQGRVTMTADTSTSTVYVELSSLRSEDTAVYYCARNEWETVVVGDLMYEYEYWGQGTLVTVSS VL: DIQMTQSPSSLSASVGDRVTITCQASQSISSYLAWYQQKPGQAPKILIYGASRLKTGVPSRFSGSGSGTSFTLTISSLEPEDAATYYCQQYASVPVTFGQGTKVEIKR | 1 | 1.33
7 | 39B6-AEE IgG4 S228P (antibody, V domains shown) VH: QVQLVQPGAEVRKPGASVKVSCKASGYRFTSYYIDWVRQAPGQGLEWMGRIDPEDAGTKYAQKFQGRVTMTADTSTSTVYVELSSLRSEDTAVYYCAREEWETVVVGDLMYEYEYWGQGTLVTVSS VL: DIQMTQSPSSLSASVGDRVTITCQASQSISSYLAWYQQKPGQAPKILIYGASRLKTGVPSRFSGSGSGTSFTLTISSLEPEDAATYYCQQYASVPVTFGQGTKVEIKR | 76.7 | 102

What follows are binders tested against T1, human GARP-TGF-β1 complex (recombinant …) (assay: SPR, Fab in periplasmic extract, off-rate on human GARP-TGF-β1 complex).
Procedure: Masterplates were picked from selection round 2, 3, 4, 5 and 6 (48 clones for each round). Periplasmic extracts were prepared and off-rates were determined by SPR. All clones were DNA-sequenced and amino acid sequences were deduced thereof. The off-rates of these clones were measured as periplasmic extracts on SPR, and compared to the off-rate of Fab 17H5.

Row | Binder | koff [s⁻¹]
8 | Fab 39A5 (Fab, V domains shown, Germlined Fab with human CH1 and Cκ (pCB13), tested as periplasmic extract) VH: QVQLVQPGAELRNPGASVKVSCKASGYRFTSYYIDWVRQAPGQGLEWMGRIDPEDGGTKYAQKFQGRVTFTRDTSTSTVYMELSSLRSEDTAVYYCARNEWETVVVGDLMYEYEYWGQGTLVT VL: DIQMTQSPSSLSASLGDRVTITCQASQSISSYLAWYQQKPGQAPKLLIYGASRLKTGVPSRFSGSGSGTDFTLTISSLQPEDAATYYCQQYASVPVTFGQGTKVEIK | 0.00019
9 | Fab 39B10 (Fab, V domains shown, Germlined Fab with human CH1 and Cκ (pCB13), tested as periplasmic extract) VH: EVQLVQSGAELKKPGASVKVSCKASGYRFTSYYIDWVRQAPGQGLEWMGRIDPEEGGTKYAQKFQGRVTMTADTSTSTAYMELSSLRSEDTAVYYCARNEWETVVVGDLMYEYEYWGQGTLVTVSS VL: DIQMTQSPSSLSASLGDRVTITCQASQSISSYLAWYQQKPGQAPNILIYGASRLKTGVPSRFSGSGSGTDFTLTISGLEAEDFATYYCQQYASVPVTFGQGTKVEIK | 0.000236
10 | Fab 39B6 (Fab, V domains shown, Germlined Fab with human CH1 and Cκ (pCB13), tested as periplasmic extract) VH: QVQLVQPGAEVRKPGASVKVSCKASGYRFTSYYIDWVRQAPGQGLEWMGRIDPEDGGTKYAQKFQGRVTMTADTSTSTVYVELSSLRSEDTAVYYCARNEWETVVVGDLMYEYEYWGQGTLVTVSS VL: DIQMTQSPSSLSASVGDRVTITCQASQSISSYLAWYQQKPGQAPKILIYGASRLKTGVPSRFSGSGSGTSFTLTISSLEPEDAATYYCQQYASVPVTFGQGTKVEIK | 0.000105
11 | Fab 38F2 (Fab, V domains shown, Germlined Fab with human CH1 and Cκ (pCB13), tested as periplasmic extract) VH: QVQLVQPGAELKKPGASVKVSCKASGYRFTSYYIDWVRQAPGQGLEWMGRIDPEDAGTKYAQKFQGRVTFTADTSTSTVYVELSSLRSEDTAVYYCARNEWETVVVGDLTYEYEYWGQGTLVTVSS VL: DIQMTQSPSSLSASVGDRVTITCQASQSISSYLAWYQQKPGKAPNLLIYGASRLKTEVPSRFSGSGSGTDFTLISGLEPEDAGTYYCQQYASVPVTFGQGTKVEIK | 0.000408
12 | Fab 39A12 (Fab, V domains shown, Germlined Fab from the phage library with human CH1 and Cκ (pCB13), tested as periplasmic extract) VH: EVQLVQPGAEVKKPGASVKVSCKASGYRFTSYYIDWVRQAPGQGLEWMGRIDPEEGGTKYAQKFQGRVTFTADTSTSTVYVELSSLRSEDTAVYYCARNEWETVVVGDLTYEYEYWGQGTLVTVSS VL: DIQMTQSPSSLSASVGDRVTITCQASQSISSYLAWYQQKPGQAPKILIYGASRLKTGVPSRFSGSGSGTDFTLTISSLQAEDFATYYCQQYASVPVTFGQGTKVEIK | 0.000606

The binders below were run against T1, human GARP-TGF-β1 complex (recombinant …) (assay: SPR Biacore T200, CM5 chip coated with GARP-TGF-β1 complex at 150 RU).
Procedure: as §1

Row | Binder | Fold-difference (KD vs 39B6-A) [fold] | Kd [nM]
13 | 39B6-A IgG4 S228P (antibody, V domains shown, 39B6 with G55A in HCDR2, in the human IgG4 S228P backbone; also called 39B6-ANE) VH: QVQLVQPGAEVRKPGASVKVSCKASGYRFTSYYIDWVRQAPGQGLEWMGRIDPEDAGTKYAQKFQGRVTMTADTSTSTVYVELSSLRSEDTAVYYCARNEWETVVVGDLMYEYEYWGQGTLVTVSS VL: DIQMTQSPSSLSASVGDRVTITCQASQSISSYLAWYQQKPGQAPKILIYGASRLKTGVPSRFSGSGSGTSFTLTISSLEPEDAATYYCQQYASVPVTFGQGTKVEIKR | 1 | 0.991
14 | 39B6-AEE IgG4 S228P (antibody, V domains shown) VH: QVQLVQPGAEVRKPGASVKVSCKASGYRFTSYYIDWVRQAPGQGLEWMGRIDPEDAGTKYAQKFQGRVTMTADTSTSTVYVELSSLRSEDTAVYYCAREEWETVVVGDLMYEYEYWGQGTLVTVSS VL: DIQMTQSPSSLSASVGDRVTITCQASQSISSYLAWYQQKPGQAPKILIYGASRLKTGVPSRFSGSGSGTSFTLTISSLEPEDAATYYCQQYASVPVTFGQGTKVEIKR | 5.8 | 5.79
